The values below are quoted from earlier work in US5550213A, “Inhibitors of urokinase plasminogen activator” (Rutgers, The State University of New Jersey, priority 1993, dated 1996).

Where only a bound is given, the exact number is not on record here.

In the data set the target is urokinase (UK) (Homo sapiens, UniProt P00749). The following applies: from Turpeinen et al. (PSTI), Christensen et al. (PAI-2); serpin Ki not functionally comparable to reversible inhibitors; read-out: Ki (nM) against UK, values obtained from the literature.

B1: PAI-2: placental type PA-inhibitor, a serpin, native inhibitor of urokinase (protein, UniProt P05120 1-415, looked up)
Plasminogen activator …: MEDLCVANTLFALNLFKHLAKASPTQNLFLSPWSISSTMAMVYMGSRGSTEDQMAKVLQFNEVGANAVTPMTPENFTSCGFMQQIQKGSYPDAILQAQAADKIHSSFRSLSSAINASTGNYLLESVNKLFGEKSASFREEYIRLCQKYYSSEPQAVDFLECAEEARKKINSWVKTQTKGKIPNLLPEGSVDGDTRMVLVNAVYFKGKWKTPFEKKLNGLYPFRVNSAQRTPVQMMYLREKLNIGYIEDLKAQILELPYAGDVSMFLLLPDEIADVSTGLELLESEITYDKLNKWTSKDKMAEDEVEVYIPQFKLEEHYELRSILRSMGMEDAFNKGRANFSGMSERNDLFLSEVFHQAMVDVNEEGTEAAAGTGGVMTGRTGHGGPQFVADHPFLFLIMHKITNCILFFGRFSSP
In the case of B1, the Ki is under 0.01 nM.

For orientation: Ki means the equilibrium dissociation constant of an inhibitor or competing ligand from its target.
